B1: Erv2p (Saccharomyces cerevisiae S288C) (protein)
chain: MKQIVKRSHAIRIVAALGIIGLWMFFSSNELSIATPGLIKAKSGIDEVQGAAAEKNDARLKEIEKQTIMPLMGDDKVKKEVGRASWKYFHTLLARFPDEPTPEEREKLHTFIGLYAELYPCGECSYHFVKLIEKYPVQTSSRTAAAMWGCHIHNKVNEYLKKDIYDCATILEDYDCGCSDSDGKRVSLEKEAKQHG
B2: Erv2p, wild type (enzyme, yeast, UniProt Q12284 1-196, looked up)
chain: PGLIKAKSGIDEVQGAAAEKNDARLKEIEKQTIMPLMGDDKVKKEVGRASWKYFHTLLARFPDEPTPEEREKLHTFIGLYAELYPCGECSYHFVKLIEKYPVQTSSRTAAAMWGCHIHNKVNEYLKKDIYDCATILEDYDCGCSDSDGKRVSLEKEAKQHG

Columns and labels:
[1] = substrate: OC(CS)C(O)CS; assay: oxygen electrode; format: biochemical, Saccharomyces cerevisiae; details: O2 as co-substrate, 50 mM Tris/HCl, 0.3 mM EDTA, pH 7.5, 25 °C
[2] = target: the molecule itself; assay: cross-linking

Row | Protein | Km [1] | kcat [1] | stoichiometry N [2]
1 | B1 | 7 ± 1 mM | 3.83 ± 0.13 s⁻¹ | 
2 | B2 |  |  | 2
